These results are taken from paper PMC6509358, “A Secreted RNA Binding Protein Forms RNA-Stabilizing Granules in the Honeybee Royal Jelly”.

For series [1], the target named is major royal jelly protein 3 (MRJP-3) (Apis mellifera) (UniProt Q17060). Nature of the series: SEC; MRJP-3 concentrated to 100 uM, 16/100 Superdex 200, eluted at 0.5 ml/min in RJ buffer (pH 4.0), no RNA; column calibrated with mass standards; monomer to higher-order oligomer. In general terms: In gel filtration, larger molecules generally elute earlier.
The target is the same in series [2]. The experiment in a line: MST; increasing unlabelled MRJP-3 added to fluorescently labelled MRJP-3 monomer; Monolith NT.115, 25 °C, RJ buffer with 0.01% Tween 20; apparent Kd of self-association; signal stable from approximately 40 uM added MRJP-3.
The target of series [3] is T1, MRJP-3 (jelly-purified) (Apis mellifera, UniProt Q17060 21-544).
T1 sequence: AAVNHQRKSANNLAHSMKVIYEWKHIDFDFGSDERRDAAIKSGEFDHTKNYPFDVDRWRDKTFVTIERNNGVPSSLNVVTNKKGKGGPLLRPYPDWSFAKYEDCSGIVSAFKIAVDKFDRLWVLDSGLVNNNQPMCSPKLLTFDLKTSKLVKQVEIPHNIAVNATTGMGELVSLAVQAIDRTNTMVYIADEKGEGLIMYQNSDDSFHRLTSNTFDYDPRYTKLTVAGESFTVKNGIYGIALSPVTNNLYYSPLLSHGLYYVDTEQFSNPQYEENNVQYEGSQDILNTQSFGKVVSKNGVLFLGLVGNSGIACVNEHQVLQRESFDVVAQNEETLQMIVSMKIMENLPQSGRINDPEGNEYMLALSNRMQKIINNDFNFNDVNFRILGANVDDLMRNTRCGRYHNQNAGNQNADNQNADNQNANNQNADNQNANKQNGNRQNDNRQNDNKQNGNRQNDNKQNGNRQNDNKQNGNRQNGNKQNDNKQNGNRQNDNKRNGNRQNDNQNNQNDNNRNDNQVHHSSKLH
The experiment in a line: EMSA; 42.8 uM protein, 0.27 uM RNA; MST: RJ buffer (composition not in material) + 0.01% Tween 20, 25 C; EMSA: room temperature 0.5-3 h, 0.8% agarose, 1xTAE. As to conditions: protein: native.

Series [4] addresses T1, MRJP-3 (jelly-purified). The experiment in a line: MST; first of three binding phases; MST: RJ buffer (composition not in material) + 0.01% Tween 20, 25 C; EMSA: room temperature 0.5-3 h, 0.8% agarose, 1xTAE. As to conditions: protein: native; label: Alexa Fluor 488 (Ulysis) for MST. In general terms: Mobility shift assays separate free from complexed probe on a gel.
Series [5] deals with T1, MRJP-3 (jelly-purified). The experiment in a line: MST; third of three binding phases; MST: RJ buffer (composition not in material) + 0.01% Tween 20, 25 C; EMSA: room temperature 0.5-3 h, 0.8% agarose, 1xTAE. Conditions: protein: native; label: Alexa Fluor 488 (Ulysis) for MST.
Series [6] has as its target T1, MRJP-3 (jelly-purified). Nature of the series: MST; second of three binding phases; MST: RJ buffer (composition not in material) + 0.01% Tween 20, 25 C; EMSA: room temperature 0.5-3 h, 0.8% agarose, 1xTAE. Conditions: protein: native; label: Alexa Fluor 488 (Ulysis) for MST.
Series [7] addresses T1, MRJP-3 (jelly-purified). The experiment in a line: EMSA; 42.8 uM protein; MST: RJ buffer (composition not in material) + 0.01% Tween 20, 25 C; EMSA: room temperature 0.5-3 h, 0.8% agarose, 1xTAE. As to conditions: protein: native.

“major royal jelly protein 3 (MRJP-3) (from UniProt Q17060 21-544) (natural protein)” came in with a stoichiometry N (monomer units) in series [1] of 20. The Kd in series [2] came to 3500 nM.

B1: 50 nt ssRNA (ssRNA)
RNA: ACGCUUCUAACUUCAAGAUUUUACACAAUCAUAUGGGCUCACUGUUACUA
In the case of B1, in series [3], the binding result is listed as “binds”.

B2: 22 nt ssRNA (ssRNA)
RNA: UCAUAUGGGCUCACUGUUACUA
For the molecule B2, the Kd came out at 4 nM in series [4], 25000 nM in series [5] and 300 nM in series [6].

B3: 18 nt ssRNA (ssRNA)
RNA: UGUGUUUAUAGCGGAUUU
With B3, in series [7], the binding result is “binds”.
